The nature of series [1]: Phase I pharmacokinetics of REGN421, single 30-min IV infusion, ELISA (Example 8). The format is in vivo, human. To be noted: mean. The protocol:
REGN421 is currently being studied in a first-in-human trial. The primary objective of the study is to determine the recommended dose of REGN421 for future efficacy trials. The secondary objectives are to characterize the drug safety profile, its pharmacokinetics, immunogenicity, and pharmacodynamics, as well as preliminary evidence of efficacy. In this study, anti-hDll4 antibody REGN 421 is administered intravenously every 3 weeks to patients whose cancer has progressed on conventional therapy. The study design follows standard methodology for dose escalation and definition of dose-limiting toxicity. To date, 7 patients have been treated at 0.25 mg/kg/dose every three weeks, and 6 patients have been treated at 0.50 mg/kg/dose every three weeks. For the pharmacokinetic study, blood samples were taken at pre-dose, 0 hour, and post-dose 1, 2, 4 and 8 hours on Day 1, followed by Days 2, 3, 4, 8 and 15 of Cycle 1; and pre-dose, 0 hour on Day 1 of Cycles≧2, and post-treatment follow-up on Days 15, 30 and 60. Plasma/serum levels of REGN421 in the samples are measured by ELISA with an upper limit of quantification of 2.5 μg/mL and a lower limit of quantification of 0.039 μg/mL in the undiluted serum sample. The study is ongoing with the intent to administer higher doses, defined in the protocol as 1, 2, 4, and 7 mg/kg/dose.
The currently available data showing plasma pharmacokinetic parameters following single 30-min. Cmax: Maximum serum concentration of the drug; Tlast: Time to the last quantifiable concentration of the drug; Clast: Last quantifiable concentration of the drug; AUClast: Area under curve up to the last concentration of the drug; AUC: Total area under the curve (i.e., drug exposure); t1/2Z: Terminal half life; Vss: Volume of distribution at steady state; CL: Drug clearance rate. Values are: mean, (CV %), and [range] (a: median [range]).

The subject of another series is human HCT116 tumor cells. Briefly: HCT116 xenograft tumor growth, REGN421 with irinotecan (Example 6). To be noted: REGN421 2 mg/kg sc (6 mg/kg total dose). Type of series: in vivo, mouse. As to the method:
Each mouse was implanted subcutaneously (sc) with 5×10^6 human HCT116 tumor cells. After the tumors were established in the mice (tumor size of ˜150 mm^3, 15 days after implantation), tumors were measured and randomized. The mice were then treated with hFc, REGN421, irinotecan or combination of REGN421 and irinotecan. A total of 30 mice were divided into 6 groups (n=5 per cohort). The first group was treated sc with hFc at 2 mg/kg; the second group was treated sc with REGN421 at 2 mg/kg; the third and fourth groups were treated ip with irinotecan at 7.5 and 25 mg/kg, respectively; the fifth group was treated sc with REGN421 at 2 mg/kg and ip with irinotecan at 7.5 mg/kg; and the sixth group was treated sc with REGN421 at 2 mg/kg and ip with irinotecan at 25 mg/kg. REGN421 was administered every 3-4 days starting on day 15 and mice received three doses total. Irinotecan was administered every 3-4 days starting on day 15 and mice received three doses total.
To assess the effects of REGN421 and irinotecan as single agents or in combination treatments, the changes in tumor size (volume) are measured, starting three days before the initial REGN421 treatment, and then on the day of each agent treatment (days 15, 19, 22) and thereafter every 3-4 days until tumors reach ˜600 mm^3 in size. In vivo tumor size is calculated using the formula (length×width^2)/2.

Series [2] deals with human VM-Cub1 tumor cells (bladder carcinoma cells). The experiment in a line: VM-Cub1 bladder carcinoma xenograft tumor growth, REGN421 with cisplatin (Example 1). The format is in vivo, mouse. To be noted: for TGI: 3 doses, at day 32; for Euthanized: control cohort euthanized day 32; for TGD: time to 600 mm^3 vs control. As to the method: The effect of anti-Dll4 antibody (REGN421) in combination with cisplatin (platinol, cis-diamminedichloroplatinum) on tumor growth was evaluated on tumors implanted in Severe Combined Immunodeficiency (SCID) mice expressing a humanized Dll4 protein (humanized Dll4 SCID mice). The humanized Dll4 SCID mouse was made by replacing the entire extracellular domain of the mouse Dll4 gene with the corresponding extracellular region of the human Dll4 gene (7 kb) in embryonic stem (ES) cells. Homozygous hDll4 mice were generated and bred into SCID background.
Each mouse was implanted subcutaneously (sc) with 1×10^6 human VM-Cub1 tumor cells (bladder carcinoma cells) plus MATRIGEL™ (BD Biosciences, #354234). After the tumors were established in the mice (tumor size of 150-200 mm^3, approximately 14 days after implantation), tumors were measured, randomized and treated with hFc, REGN421, cisplatin, or combination of REGN421 and cisplatin. A total of 45 mice were divided into nine groups (n=5 per cohort). The first group was treated subcutaneously (sc) with hFc at 2 mg/kg; the second and third groups were treated sc with REGN421 at 0.5 and 2 mg/kg, respectively; the fourth and fifth groups were treated intraperitoneally (ip) with cisplatin at 0.5 and 2 mg/kg, respectively; the sixth group was treated sc with REGN421 at 0.5 mg/kg and ip with cisplatin at 0.5 mg/kg; the seventh group was treated sc with REGN421 at 0.5 mg/kg and ip with cisplatin at 2 mg/kg; the eighth group was treated sc with REGN421 at 2 mg/kg and ip with cisplatin at 0.5 mg/kg; and the ninth group was treated sc with REGN421 at 2 mg/kg and ip with cisplatin at 2 mg/kg. REGN421 was administered every 3-4 days starting on day 14 and mice received three doses total. Cisplatin was administered every 24 hours starting on day 14; mice received four doses total.
To assess the effects of REGN421 and cisplatin as single agents or in combination treatments, the changes in tumor size were recorded. Tumor growth was measured three days before the initial REGN421 treatment, on the day of each REGN421 treatment (days 14, 17 and 21) and thereafter every 3-4 days until tumors reached ˜600 mm^3 in size. In vivo tumor size was calculated using the formula (length×width^2)/2 (FIG. 1 and Table 1).
Tumor Growth Inhibition, TGI, was determined by calculating the difference in tumor size for treated (T) versus vehicle control (C) tumor at the day the control cohort was euthanized (i.e., at day 32); TGI=[1−(Tfinal−Tinitial)/(Cfinal−Cinitial)]×100.
Tumor growth delay, TGD, was assessed as the difference in days between treated (T) versus control (C) tumors when each cohort reached a specified tumor size. The predetermined tumor size for this experiment was 600 mm^3.

B1: REGN421: anti-hDll4 antibody comprising HCVR/LCVR combination of SEQ ID NO:116/118 (antibody, V domains shown)
VH: QVQLVESGGGVVQPGRSLRLSCAASGFTFSSYGMHWVRQAPGKGLEWVSFLWYDGTNKNYVESVKGRFTISRDNSKNMLYLEMNSLRAEDTAVYYCARDHDFRSGYEGWFDPWGQGTLVTVSS
VL: EIVLTQSPATLSLSPGERATLSCRASQSVSSYLAWYQQKPGQAPRLLIYDASNRATGIPARFSGSGSGTDFTLTISSLEPEDFAVYYCQHRSNWPPTFGGGTKVEIK
As to B1, in series [1] (0.25 mg/kg IV, n = 7 patients), the AUC came out at 489 µg·h/mL and the AUClast was 452 µg·h/mL. In series [1] (0.5 mg/kg IV, n = 2 patients), the AUC is 963 µg·h/mL and the AUClast was 759 µg·h/mL. The TGD in the series with human HCT116 tumor cells is listed as 9 days. In series [2] (REGN421 0.5 mg/kg/dose sc), the TGI is listed as −13.7%, the Euthanized was 32 days and the TGD is on record as 0 days. For the same molecule, in series [2] (REGN421 2 mg/kg/dose sc), the TGI is on record as 83.1%, the Euthanized was 44 days and the TGD is reported as 12 days.
